Test results reported in paper PMC9482650, “Quantitative fragmentomics allow affinity mapping of interactomes” (Nature Communications, 2022).

How the values were obtained:
Test in all cases: holdup assay
Design in all cases: key: below the threshold = too weak to quantify, mostly under pKd 3.1 to 4
NHERF3_3, Q5T2W1 = target: T1, NHERF3_3, Q5T2W1
T1 sequence (Q5T2W1 238-333, limits assumed, looked up): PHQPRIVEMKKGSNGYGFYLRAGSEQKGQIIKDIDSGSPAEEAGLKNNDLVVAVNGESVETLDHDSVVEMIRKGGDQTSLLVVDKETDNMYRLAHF

PDZRN3_1, Q9UPQ7 = target: T2, PDZRN3_1, Q9UPQ7
T2 sequence (Q9UPQ7 244-349, limits assumed, looked up): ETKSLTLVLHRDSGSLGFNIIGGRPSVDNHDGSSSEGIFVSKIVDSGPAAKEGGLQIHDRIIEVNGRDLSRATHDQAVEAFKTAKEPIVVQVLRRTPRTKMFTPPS

SNTB1, Q13884 = target: T3, SNTB1, Q13884
T3 sequence (Q13884 107-205, limits assumed, looked up): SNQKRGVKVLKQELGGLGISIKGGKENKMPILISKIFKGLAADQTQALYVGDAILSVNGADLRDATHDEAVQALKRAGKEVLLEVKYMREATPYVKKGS

GRIP1_4, Q9Y3R0 = target: T4, GRIP1_4, Q9Y3R0
T4 sequence (Q9Y3R0 467-571, limits assumed, looked up): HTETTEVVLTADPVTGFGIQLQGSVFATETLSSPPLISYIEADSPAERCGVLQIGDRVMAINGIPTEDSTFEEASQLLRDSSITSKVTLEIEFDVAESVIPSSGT

Inadl_8, Q8NI35 = target: Inadl_8, Q8NI35
PCLO, Q9Y6V0 = target: T5, PCLO, Q9Y6V0
T5 sequence (Q9Y6V0 4491-4600, limits assumed, looked up): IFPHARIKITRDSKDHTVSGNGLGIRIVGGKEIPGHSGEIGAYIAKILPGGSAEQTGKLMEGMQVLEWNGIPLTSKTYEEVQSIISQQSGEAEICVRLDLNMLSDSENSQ

ARHGEF12, Q9NZN5-2 = target: ARHGEF12, Q9NZN5-2
TJP1_3, Q07157 = target: TJP1_3, Q07157
LNX2_2, Q8N448 = target: T6, LNX2_2, Q8N448
T6 sequence (Q8N448 334-432, limits assumed, looked up): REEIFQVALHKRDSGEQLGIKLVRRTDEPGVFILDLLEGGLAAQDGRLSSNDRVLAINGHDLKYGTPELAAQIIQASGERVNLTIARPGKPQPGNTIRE

SYNJ2BP, P57105 = target: T7, SYNJ2BP, P57105
T7 sequence (P57105 8-110, limits assumed, looked up): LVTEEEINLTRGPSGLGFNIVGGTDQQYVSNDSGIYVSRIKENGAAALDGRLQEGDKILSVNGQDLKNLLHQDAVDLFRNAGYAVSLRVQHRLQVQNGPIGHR

GORASP2, Q9H8Y8 = target: GORASP2, Q9H8Y8
SNTA1, Q13424 = target: T8, SNTA1, Q13424
T8 sequence (Q13424 82-180, limits assumed, looked up): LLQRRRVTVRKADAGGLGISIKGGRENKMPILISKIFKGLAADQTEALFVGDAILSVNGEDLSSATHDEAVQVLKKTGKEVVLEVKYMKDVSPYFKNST

LIMK2, P53671 = target: LIMK2, P53671
APBA3_1, O96018 = target: T9, APBA3_1, O96018
T9 sequence (O96018 389-490, limits assumed, looked up): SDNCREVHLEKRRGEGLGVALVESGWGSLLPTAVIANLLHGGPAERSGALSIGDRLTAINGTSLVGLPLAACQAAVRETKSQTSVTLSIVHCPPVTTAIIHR

LRRC7, Q96NW7 = target: T10, LRRC7, Q96NW7
T10 sequence (Q96NW7 1440-1537, limits assumed, looked up): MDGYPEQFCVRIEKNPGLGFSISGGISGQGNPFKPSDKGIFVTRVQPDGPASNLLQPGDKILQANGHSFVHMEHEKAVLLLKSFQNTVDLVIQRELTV

MPDZ_12, O75970 = target: T11, MPDZ_12, O75970
T11 sequence (O75970 1857-1958, limits assumed, looked up): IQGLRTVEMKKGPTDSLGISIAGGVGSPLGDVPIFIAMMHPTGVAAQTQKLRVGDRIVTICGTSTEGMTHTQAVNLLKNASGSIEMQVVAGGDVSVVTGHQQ

LNX2_3, Q8N448 = target: T12, LNX2_3, Q8N448
T12 sequence (Q8N448 463-564, limits assumed, looked up): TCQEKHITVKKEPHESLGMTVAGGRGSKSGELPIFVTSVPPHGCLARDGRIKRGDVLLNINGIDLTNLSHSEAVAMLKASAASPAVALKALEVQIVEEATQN

PDZRN4_1, Q6ZMN7 = target: PDZRN4_1, Q6ZMN7
IL16_3, Q14005 = target: IL16_3, Q14005
MAGI2_5, Q86UL8 = target: MAGI2_5, Q86UL8
GRASP, Q7Z6J2 = target: GRASP, Q7Z6J2
HTRA2, O43464 = target: HTRA2, O43464
LIN7A, O14910 = target: T13, LIN7A, O14910
T13 sequence (O14910 103-200, limits assumed, looked up): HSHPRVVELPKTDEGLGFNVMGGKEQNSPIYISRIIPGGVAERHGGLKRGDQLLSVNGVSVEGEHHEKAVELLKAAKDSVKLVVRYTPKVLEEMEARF

IL16_4, Q14005 = target: IL16_4, Q14005
[1] = plain residues with an end cap or a label only (N-terminal biotin on a linker: ttds)
[2] = plain residues with an end cap or a label only (N-terminal biotin on a linker: gsgsgs; C-terminal amide)

Chain of GRASP, Q7Z6J2 (Q7Z6J2 96-193): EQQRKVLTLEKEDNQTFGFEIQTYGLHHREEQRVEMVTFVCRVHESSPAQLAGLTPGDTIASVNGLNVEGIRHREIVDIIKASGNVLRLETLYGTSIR
Chain of TJP1_3, Q07157 (Q07157 416-512): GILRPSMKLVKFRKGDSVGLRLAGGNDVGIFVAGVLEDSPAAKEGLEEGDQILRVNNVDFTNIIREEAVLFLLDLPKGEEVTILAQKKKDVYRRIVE
Chain of PDZRN4_1, Q6ZMN7 (Q6ZMN7 213-318): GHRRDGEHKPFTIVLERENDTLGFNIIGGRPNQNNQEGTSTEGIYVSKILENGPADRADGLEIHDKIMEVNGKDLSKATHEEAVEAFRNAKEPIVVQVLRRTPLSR
Chain of IL16_3, Q14005 (Q14005 1107-1207): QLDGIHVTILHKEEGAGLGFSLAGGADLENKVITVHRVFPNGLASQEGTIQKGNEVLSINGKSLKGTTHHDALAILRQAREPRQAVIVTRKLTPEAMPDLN
Chain of Inadl_8, Q8NI35 (Q8NI35 1425-1530): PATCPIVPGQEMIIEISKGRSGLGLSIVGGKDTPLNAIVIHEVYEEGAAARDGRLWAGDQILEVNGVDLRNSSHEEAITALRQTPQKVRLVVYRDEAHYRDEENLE
Chain of LIMK2, P53671 (P53671 143-248): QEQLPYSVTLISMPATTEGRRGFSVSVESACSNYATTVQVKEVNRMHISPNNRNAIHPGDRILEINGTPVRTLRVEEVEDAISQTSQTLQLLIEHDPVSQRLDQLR
Chain of MAGI2_5, Q86UL8 (Q86UL8 915-1017): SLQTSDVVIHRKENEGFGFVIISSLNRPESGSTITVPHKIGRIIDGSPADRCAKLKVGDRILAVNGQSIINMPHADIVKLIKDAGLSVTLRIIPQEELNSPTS
Chain of IL16_4, Q14005 (Q14005 1229-1329): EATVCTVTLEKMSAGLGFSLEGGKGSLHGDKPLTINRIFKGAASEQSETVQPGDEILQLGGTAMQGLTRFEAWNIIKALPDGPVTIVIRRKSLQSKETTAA
Chain of ARHGEF12, Q9NZN5-2 (Q9NZN5 other isoform, or with tags, fused parts or gaps): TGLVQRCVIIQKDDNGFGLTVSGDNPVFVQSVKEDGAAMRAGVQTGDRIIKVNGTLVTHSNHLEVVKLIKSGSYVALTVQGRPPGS
Chain of HTRA2, O43464 (O43464 355-458): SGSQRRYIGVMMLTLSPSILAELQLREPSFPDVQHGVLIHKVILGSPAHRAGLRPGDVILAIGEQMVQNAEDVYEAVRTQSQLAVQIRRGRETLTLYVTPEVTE

SSRTRRETQL [HPV16-E6, P03126]
pKd (NHERF3_3, Q5T2W1; [1]): 3.72
pKd (PDZRN3_1, Q9UPQ7; [1]): 5.66
pKd (SNTB1, Q13884; [1]): 4.92
pKd (GRIP1_4, Q9Y3R0; [1]): below the threshold
pKd (Inadl_8, Q8NI35; [1]): below the threshold
pKd (PCLO, Q9Y6V0; [1]): below the threshold
pKd (ARHGEF12, Q9NZN5-2; [1]): 4.92
pKd (TJP1_3, Q07157; [1]): below the threshold
pKd (LNX2_2, Q8N448; [1]): below the threshold
pKd (SYNJ2BP, P57105; [1]): 5.18
pKd (GORASP2, Q9H8Y8; [1]): 4.02
pKd (SNTA1, Q13424; [1]): 4.75
pKd (LIMK2, P53671; [1]): below the threshold
pKd (APBA3_1, O96018; [1]): below the threshold
pKd (LRRC7, Q96NW7; [1]): 3.9
pKd (MPDZ_12, O75970; [1]): below the threshold
pKd (LNX2_3, Q8N448; [1]): below the threshold
pKd (PDZRN4_1, Q6ZMN7; [1]): 5.25
pKd (IL16_3, Q14005; [1]): below the threshold
pKd (MAGI2_5, Q86UL8; [1]): 3.93
pKd (GRASP, Q7Z6J2; [1]): below the threshold
pKd (HTRA2, O43464; [1]): below the threshold
pKd (LIN7A, O14910; [1]): below the threshold
pKd (IL16_4, Q14005; [1]): below the threshold

TVASEKESVM [SLC1A5, Q15758]
pKd (NHERF3_3, Q5T2W1; [1]): below the threshold
pKd (PDZRN3_1, Q9UPQ7; [1]): 3.61
pKd (SNTB1, Q13884; [1]): 4.07
pKd (GRIP1_4, Q9Y3R0; [1]): below the threshold
pKd (Inadl_8, Q8NI35; [1]): below the threshold
pKd (PCLO, Q9Y6V0; [1]): below the threshold
pKd (ARHGEF12, Q9NZN5-2; [1]): 3.65
pKd (TJP1_3, Q07157; [1]): below the threshold
pKd (LNX2_2, Q8N448; [1]): below the threshold
pKd (SYNJ2BP, P57105; [1]): 3.51
pKd (GORASP2, Q9H8Y8; [1]): below the threshold
pKd (SNTA1, Q13424; [1]): 3.81
pKd (LIMK2, P53671; [1]): below the threshold
pKd (APBA3_1, O96018; [1]): below the threshold
pKd (LRRC7, Q96NW7; [1]): below the threshold
pKd (MPDZ_12, O75970; [1]): below the threshold
pKd (LNX2_3, Q8N448; [1]): below the threshold
pKd (PDZRN4_1, Q6ZMN7; [1]): 3.87
pKd (IL16_3, Q14005; [1]): below the threshold
pKd (MAGI2_5, Q86UL8; [1]): below the threshold
pKd (GRASP, Q7Z6J2; [1]): below the threshold
pKd (HTRA2, O43464; [1]): below the threshold
pKd (LIN7A, O14910; [1]): below the threshold
pKd (IL16_4, Q14005; [1]): below the threshold

TLSLTDSSVDGIPPYR [AXIN1_int, O15169]
pKd (NHERF3_3, Q5T2W1; [2]): below the threshold
pKd (PDZRN3_1, Q9UPQ7; [2]): below the threshold
pKd (SNTB1, Q13884; [2]): below the threshold
pKd (GRIP1_4, Q9Y3R0; [2]): below the threshold
pKd (Inadl_8, Q8NI35; [2]): below the threshold
pKd (PCLO, Q9Y6V0; [2]): below the threshold
pKd (ARHGEF12, Q9NZN5-2; [2]): below the threshold
pKd (TJP1_3, Q07157; [2]): below the threshold
pKd (LNX2_2, Q8N448; [2]): below the threshold
pKd (SYNJ2BP, P57105; [2]): 4.52
pKd (GORASP2, Q9H8Y8; [2]): below the threshold
pKd (SNTA1, Q13424; [2]): below the threshold
pKd (LIMK2, P53671; [2]): below the threshold
pKd (APBA3_1, O96018; [2]): below the threshold
pKd (LRRC7, Q96NW7; [2]): below the threshold
pKd (MPDZ_12, O75970; [2]): 3.55
pKd (LNX2_3, Q8N448; [2]): below the threshold
pKd (PDZRN4_1, Q6ZMN7; [2]): below the threshold
pKd (IL16_3, Q14005; [2]): below the threshold
pKd (MAGI2_5, Q86UL8; [2]): below the threshold
pKd (GRASP, Q7Z6J2; [2]): below the threshold
pKd (HTRA2, O43464; [2]): below the threshold
pKd (LIN7A, O14910; [2]): below the threshold
pKd (IL16_4, Q14005; [2]): below the threshold

IYVPEAQTRL [DLGAP4, Q9Y2H0]
pKd (NHERF3_3, Q5T2W1; [1]): 4.14
pKd (PDZRN3_1, Q9UPQ7; [1]): 3.94
pKd (SNTB1, Q13884; [1]): 4.2
pKd (GRIP1_4, Q9Y3R0; [1]): below the threshold
pKd (Inadl_8, Q8NI35; [1]): below the threshold
pKd (PCLO, Q9Y6V0; [1]): below the threshold
pKd (ARHGEF12, Q9NZN5-2; [1]): 4.1
pKd (TJP1_3, Q07157; [1]): below the threshold
pKd (LNX2_2, Q8N448; [1]): below the threshold
pKd (SYNJ2BP, P57105; [1]): below the threshold
pKd (GORASP2, Q9H8Y8; [1]): below the threshold
pKd (SNTA1, Q13424; [1]): 3.98
pKd (LIMK2, P53671; [1]): below the threshold
pKd (APBA3_1, O96018; [1]): below the threshold
pKd (LRRC7, Q96NW7; [1]): below the threshold
pKd (MPDZ_12, O75970; [1]): below the threshold
pKd (LNX2_3, Q8N448; [1]): below the threshold
pKd (PDZRN4_1, Q6ZMN7; [1]): 4.08
pKd (IL16_3, Q14005; [1]): below the threshold
pKd (MAGI2_5, Q86UL8; [1]): 3.82
pKd (GRASP, Q7Z6J2; [1]): 4.2
pKd (HTRA2, O43464; [1]): below the threshold
pKd (LIN7A, O14910; [1]): below the threshold
pKd (IL16_4, Q14005; [1]): below the threshold
